Laboratory results published in publication doi:10.1101/2024.07.30.605799 (bioRxiv, 2024).
Where two headings read alike, the source gives them in different places.

How the values were obtained:
[1] = molecular target: the molecule itself; assay: SEC
[2] = molecular target: the molecule itself; assay: SEC; remark: listed apart in the source

Protein | stoichiometry N [1] | stoichiometry N [2]
human CAD dihydroorotase (DHO) domain, wild type (domain or fragment, UniProt P27708 1456-1846, looked up, carboxylated lysine K1556) MTSQKLVRLPGLIDVHVHLREPGGTHKEDFASGTAAALAGGITMVCAMPNTRPPIIDAPALALAQKLAEAGARCDFALFLGASSENAGTLGTVAGSAAGLKLYLNETFSELRLDSVVQWMEHFETWPSHLPIVAHAEQQTVAAVLMVAQLTQRSVHICHVARKEEILLIKAAKARGLPVTCEVAPHHLFLSHDDLERLGPGKGEVRPELGSRQDVEALWENMAVIDCFASDHAPHTLEEKCGSRPPPGFPGLETMLPLLLTAVSEGRLSLDDLLQRLHHNPRRIFHLPPQEDTYVEVDLEHEWTIPSHMPFSKAHWTPFEGQKVKGTVRRVVLRGEVAYIDGQVLVPPGYGQDVRKWPQGAVPQLPPSAPATSEMTTTPERPRRGIPGLPD | 2 | –
human CAD DHO domain bearing H1687R (domain or fragment, UniProt P27708 1456-1846, looked up) MTSQKLVRLPGLIDVHVHLREPGGTHKEDFASGTAAALAGGITMVCAMPNTRPPIIDAPALALAQKLAEAGARCDFALFLGASSENAGTLGTVAGSAAGLKLYLNETFSELRLDSVVQWMEHFETWPSHLPIVAHAEQQTVAAVLMVAQLTQRSVHICHVARKEEILLIKAAKARGLPVTCEVAPHHLFLSHDDLERLGPGKGEVRPELGSRQDVEALWENMAVIDCFASDRAPHTLEEKCGSRPPPGFPGLETMLPLLLTAVSEGRLSLDDLLQRLHHNPRRIFHLPPQEDTYVEVDLEHEWTIPSHMPFSKAHWTPFEGQKVKGTVRRVVLRGEVAYIDGQVLVPPGYGQDVRKWPQGAVPQLPPSAPATSEMTTTPERPRRGIPGLPD | 2 | –
human CAD DHO domain bearing S1538L (domain or fragment, UniProt P27708 1456-1846, looked up, carboxylated lysine K1556) MTSQKLVRLPGLIDVHVHLREPGGTHKEDFASGTAAALAGGITMVCAMPNTRPPIIDAPALALAQKLAEAGARCDFALFLGALSENAGTLGTVAGSAAGLKLYLNETFSELRLDSVVQWMEHFETWPSHLPIVAHAEQQTVAAVLMVAQLTQRSVHICHVARKEEILLIKAAKARGLPVTCEVAPHHLFLSHDDLERLGPGKGEVRPELGSRQDVEALWENMAVIDCFASDHAPHTLEEKCGSRPPPGFPGLETMLPLLLTAVSEGRLSLDDLLQRLHHNPRRIFHLPPQEDTYVEVDLEHEWTIPSHMPFSKAHWTPFEGQKVKGTVRRVVLRGEVAYIDGQVLVPPGYGQDVRKWPQGAVPQLPPSAPATSEMTTTPERPRRGIPGLPD | 2 | –
human CAD DHO domain bearing S1538A (domain or fragment, UniProt P27708 1456-1846, looked up) MTSQKLVRLPGLIDVHVHLREPGGTHKEDFASGTAAALAGGITMVCAMPNTRPPIIDAPALALAQKLAEAGARCDFALFLGAASENAGTLGTVAGSAAGLKLYLNETFSELRLDSVVQWMEHFETWPSHLPIVAHAEQQTVAAVLMVAQLTQRSVHICHVARKEEILLIKAAKARGLPVTCEVAPHHLFLSHDDLERLGPGKGEVRPELGSRQDVEALWENMAVIDCFASDHAPHTLEEKCGSRPPPGFPGLETMLPLLLTAVSEGRLSLDDLLQRLHHNPRRIFHLPPQEDTYVEVDLEHEWTIPSHMPFSKAHWTPFEGQKVKGTVRRVVLRGEVAYIDGQVLVPPGYGQDVRKWPQGAVPQLPPSAPATSEMTTTPERPRRGIPGLPD | 2 | –
human CAD DHO domain bearing W1581R (domain or fragment, UniProt P27708 1456-1846, looked up) MTSQKLVRLPGLIDVHVHLREPGGTHKEDFASGTAAALAGGITMVCAMPNTRPPIIDAPALALAQKLAEAGARCDFALFLGASSENAGTLGTVAGSAAGLKLYLNETFSELRLDSVVQWMEHFETRPSHLPIVAHAEQQTVAAVLMVAQLTQRSVHICHVARKEEILLIKAAKARGLPVTCEVAPHHLFLSHDDLERLGPGKGEVRPELGSRQDVEALWENMAVIDCFASDHAPHTLEEKCGSRPPPGFPGLETMLPLLLTAVSEGRLSLDDLLQRLHHNPRRIFHLPPQEDTYVEVDLEHEWTIPSHMPFSKAHWTPFEGQKVKGTVRRVVLRGEVAYIDGQVLVPPGYGQDVRKWPQGAVPQLPPSAPATSEMTTTPERPRRGIPGLPD | 2 | –
human CAD ATC domain bearing P2186S (domain or fragment, UniProt P27708 1917-2225, looked up) LLHSLVGQHILSVQQFTKDQMSHLFNVAHTLRMMVQKERSLDILKGKVMASMFYEVSTRTSSSFAAAMARLGGAVLSFSEATSSVQKGESLADSVQTMSCYADVVVLRHPQPGAVELAAKHCRRPVINAGDGVGEHPTQALLDIFTIREELGTVNGMTITMVGDLKHGRTVHSLACLLTQYRVSLRYVAPPSLRMPPTVRAFVASRGTKQEEFESIEEALPDTDVLYMTRIQKERFGSTQEYEACFGQFILTPHIMTRAKKKMVVMHPMSRVNEISVEVDSDPRAAYFRQAENGMYIRMALLATVLGRF | – | 3
